The values that follow come from IntAct's records for PubMed 15604664.

First the molecules themselves.
B1: Floral homeotic protein … (Arabidopsis thaliana (Mouse-ear cress)), P48007 (parent)
chain: MGRGKIEIKRIENANNRVVTFSKRRNGLVKKAKEITVLCDAKVALIIFASNGKMIDYCCPSMDLGAMLDQYQKLSGKKLWDAKHENLSNEIDRIKKENDSLQLELRHLKGEDIQSLNLKNLMAVEHAIEHGLDKVRDHQMEILISKRRNEKMMAEEQRQLTFQLQQQEMAIASNARGMMMRDHDGQFGYRVQPIQPNLQEKIMSLVID
partner: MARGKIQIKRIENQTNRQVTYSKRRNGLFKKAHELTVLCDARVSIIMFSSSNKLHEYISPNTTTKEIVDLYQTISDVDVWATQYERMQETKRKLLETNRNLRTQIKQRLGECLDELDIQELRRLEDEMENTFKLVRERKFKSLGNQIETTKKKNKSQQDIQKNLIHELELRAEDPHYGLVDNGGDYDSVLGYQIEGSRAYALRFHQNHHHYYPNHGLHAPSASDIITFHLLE
B2: Developmental protein … 3 (Arabidopsis thaliana (Mouse-ear cress)), O22456 (parent)
chain: MGRGRVELKRIENKINRQVTFAKRRNGLLKKAYELSVLCDAEVALIIFSNRGKLYEFCSSSSMLRTLERYQKCNYGAPEPNVPSREALAVELSSQQEYLKLKERYDALQRTQRNLLGEDLGPLSTKELESLERQLDSSLKQIRALRTQFMLDQLNDLQSKERMLTETNKTLRLRLADGYQMPLQLNPNQEEVDHYGRHHHQQQQHSQAFFQPLECEPILQIGYQGQQDGMGAGPSVNNYMLGWLPYDTNSI
partner: B1 chain
B3: Floral homeotic protein … (Arabidopsis thaliana (Mouse-ear cress)), P48007 (parent)
chain: B1 chain

In one assay the parent is B1. Conditions: with ap3_arath AP3, P35632.
For the variant L116R, the “effect of a mutation on the interaction” value is given as “decreasing interaction”.
The same measure, in the same setting: then L116P, with “decreasing interaction”; and M153P, with “decreasing interaction”; and V135A, with “decreasing interaction”.
On the same count and under the same terms, with N98D the entry was “decreasing interaction”; with N149P, “increasing interaction”; with I94T, “decreasing interaction”.
As for I142P, the “effect of a mutation on the interaction” value is recorded as “decreasing interaction”.
G177P: the “effect of a mutation on the interaction” value is on record as “increasing interaction”.
Same read-out and setting: with L160P the entry was “increasing interaction”; with G131V, “decreasing interaction”.
Same read-out and setting: then G131P, with “decreasing interaction”; and Q102P, with “decreasing interaction”.
On the same count and under the same terms, with L108S the entry was “decreasing interaction”.
Q167P: the “effect of a mutation on the interaction” value is “increasing interaction”.
Regarding S145P, the “effect of a mutation on the interaction” value is reported as “decreasing interaction”.
On the same count and under the same terms, with I128T the entry was “decreasing interaction”; with I91T, “decreasing interaction”.
Still for that read-out and setting: then A127P, with “decreasing interaction”; and L101A, with “decreasing interaction”.
The same measure, in the same setting: with L143P the entry was “decreasing interaction”.
As for A154P, the “effect of a mutation on the interaction” value is recorded as “decreasing interaction”.
For L132P, the “effect of a mutation on the interaction” value is recorded as “decreasing interaction”.
On the same count and under the same terms, with L87P the entry was “decreasing interaction”; with L103P, “decreasing interaction”; with G110A, “decreasing interaction”.
On the same count and under the same terms, with G110P the entry was “decreasing interaction”; with L105H, “decreasing interaction”; with L121P, “decreasing interaction”.
Consider L121A, for which the “effect of a mutation on the interaction” value is “decreasing interaction”.
As for V124D, the “effect of a mutation on the interaction” value is “decreasing interaction”.

Variants of B2 are the subject of a further assay. The conditions noted are these: with pist_arath PI, P48007.
On to R146E, for which the “effect of a mutation on the interaction” value is recorded as “decreasing interaction”.

In a further assay the parent is B3. Conditions: with sep3_arath SEP3, O22456.
Consider E129D, for which the “effect of a mutation on the interaction” value is given as “decreasing interaction”.
The same measure, in the same setting: with E129K;L132P the entry was “decreasing interaction”; with L143P, “decreasing interaction”; with P193L, “decreasing interaction”.
Turning to R158Q;E168V, the “effect of a mutation on the interaction” value is given as “decreasing interaction”.
The same measure, in the same setting: with L164Q the entry was “decreasing interaction”; with K151E, “decreasing interaction”; with F162L;M203T, “decreasing interaction”.
The same measure, in the same setting: with A127P the entry was “decreasing interaction”; with I128V, “decreasing interaction”.
The same measure, in the same setting: with I128F the entry was “decreasing interaction”; with I142F, “decreasing interaction”.
As to A154P;Q157E;F162L, the “effect of a mutation on the interaction” value is listed as “decreasing interaction”.
On the same count and under the same terms, then E141R;P193L, with “decreasing interaction”.
